Data taken from the RNAGym collection of RNA variant scans (doi:10.1073/pnas.2313332121).
Fewer inactive variants are shown than the library holds.

B1: TPR 5TU (parent)
chain: GGAUCUUCUCGAUCUAACAAAAAAGACAAAUCUGCCACAAAGCUUGAGAGCAUCUUCGGAUGCAGAGGCGGCAGCCUUCGGUGGCGCGAUAGCGCCAACGUUCUCAACUAUGACACGCAAAACGCGUGCUCCGUUGAAUGGAGUUUAUCAUG

Variants of: B1
Test: polymerase ribozyme fitness, log enrichment relative to wild type (log ratio); higher = more active; in vitro selection for triplet polymerase activity
Outline: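 Only genotypes with ≥10 input reads and ≥1 read per output were kept after Illumina sequencing of input and output libraries. These libraries were PCR-built, transcribed mutants of each subunit of a heterodimeric triplet polymerase ribozyme, each put through one triplicate in vitro selection round with frozen incubation at −7 °C, gel excision of extended constructs, streptavidin-bead capture and RT-PCR. Fitness is a logarithmic ratio of genotype enrichment to wild-type enrichment, from inverse-variance-weighted replicate averages, with the logarithm in base 2.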

| Variant | polymerase ribozyme fitness (log ratio) |
| --- | --- |
| A26U G59U C69G A142G | -2.52 |
| A28U C35A A41U U53A G59A C85U G128A | ≤ -4.2 |
| C27U A52C C85G C116G G128U A137G | ≤ -4.2 |
| A28U G59A | ≤ -4.2 |
| A28U U44A U55A U77G A120U | ≤ -4.2 |
| C27A C85U | -3.43 |
| A28G U55A G67U A89C C129A G140C | ≤ -4.2 |
| A29C G46U U127G | ≤ -4.2 |
| A28C G68A G92C A122G C132G | -3.62 |
| C27U C131U | 0.137 |
| A28G G46A U55G C57A A73U C96A | ≤ -4.2 |
| A26U C116U | -1.09 |
| A28U C54G C69U C79U A91U U134G | ≤ -4.2 |
| C27U U101G G136A | -1.57 |
| A29C C79G C96U U104C | ≤ -4.2 |
| C27G C96U | -3.97 |
| A29U A142C | -4.15 |
| A26U A41C A49U U53A C95U U130A C132A G143A U148C | ≤ -4.2 |
| C27A A41G C54A C72G C103G G133U G141U U144A U145G | ≤ -4.2 |
| C27U A41C A73G C75U C93A | ≤ -4.2 |
| A26U G83C G128A U134G U135A U146C | ≤ -4.2 |
| A26U U55A | -1.66 |
| A26U U55G | -1.36 |
| C27U A47G U77A C85U U146C | ≤ -4.2 |

| Variant | polymerase ribozyme fitness (log ratio) |
| --- | --- |
| A28U C99G | -3.72 |
| A29U G50U G59A C87A | ≤ -4.2 |
| C27U C54G G84A C95G A122G | -2.89 |
| C27G U33A U55A C87A A98C U104G U148A | ≤ -4.2 |
| C27U U55G C85U A89U | -2.33 |
| A29U C54U U56G C57U C93U C103U G133A | ≤ -4.2 |
| A28U A110C | ≤ -4.2 |
| A28U A64G G68U G83U A121C G143A | ≤ -4.2 |
| C27A C36U G74C C75G G84U C93G A97C G117A | ≤ -4.2 |
| A28G A66C C79U G92U U148C | -3.86 |
| C27U G128A | -4.04 |
| A28G U44G C51U C75A C76G G84U G140A | ≤ -4.2 |
| C27G U56A C99A | ≤ -4.2 |
| A28G C54G C76U G94A | -4 |
| C27G A52G U53A G100A | ≤ -4.2 |
| A26U U33G C38U A40C U56A G83A A89G A97G G141C | ≤ -4.2 |
| A28U U31C A91G C108U G136U A142G | ≤ -4.2 |
| A29U G46C G83C C108U | ≤ -4.2 |
| A29U A39G U55A G92A | ≤ -4.2 |
| A28C A40G G59U C87G A110G G143U G152C | ≤ -4.2 |
| A26U U55A A60C | ≤ -4.2 |
| A29G C95A A119C G141C | ≤ -4.2 |
| A26U A40U A120U | -2.33 |
| C27G A39G A89C G92A U127A | -4.11 |

| Variant | polymerase ribozyme fitness (log ratio) |
| --- | --- |
| A28U U56A A97G | ≤ -4.2 |
| A28G G42U G88A C93U C118A | ≤ -4.2 |
| A29G C75U C96U U139G | ≤ -4.2 |
| A26U C69U | -1.87 |
| A28G G58C C87U C99U | ≤ -4.2 |
| A29U C95A U134C G140C | ≤ -4.2 |
| A26U C85U C96U G143U | -3.94 |
| A29U C38A G50C A52C A66U G74C C108G C132A | ≤ -4.2 |
| C27G C54A G65C C95U C96A C99A | ≤ -4.2 |
| C27G U33C U55A A97C A121G | ≤ -4.2 |
| C27G U61A A66G C76A C85A G141A | ≤ -4.2 |
| A28U U82C C93U C96G C105A | ≤ -4.2 |
| C27G U77A G86U A115G C131U G143C U151G | ≤ -4.2 |
| A28C A39C | ≤ -4.2 |
| C27A U77A G94A C114U | ≤ -4.2 |
| A28U A41U G67C C93U | ≤ -4.2 |
| A28U C95U C99U C118A | ≤ -4.2 |
| C27A U44A U45A C93G | -4.2 |
| C27G C43A C72U C93A C125G G133U G143A | ≤ -4.2 |
| C27A G86A U134A A147G | ≤ -4.2 |
| A28C A49U U55A U61A C76A A142C U146A | ≤ -4.2 |
| A26U U55G G88U G94A G124A C125G G126A A142U | ≤ -4.2 |
| A29G U53A A110G A120U C123G | ≤ -4.2 |
| A28C C38A G46A A66C G71U U127G | ≤ -4.2 |

| Variant | polymerase ribozyme fitness (log ratio) |
| --- | --- |
| A28G C57G G84A A98G C114U | ≤ -4.2 |
| A28C G67C C87A U109A | ≤ -4.2 |
| A29C G88C G92U | ≤ -4.2 |
| A28U C63U C72U C93U C105G A142U | ≤ -4.2 |
| A29G C57A C93A C96A U145G | ≤ -4.2 |
| A28U G59C C93U A138G | ≤ -4.2 |
| C27A A41U C116U G136C U144A | ≤ -4.2 |
| A29C U33A A41C U45A A91G | ≤ -4.2 |
| A29C C87U G94U A107C U127G G140A | ≤ -4.2 |
| A29C C108A A142U | ≤ -4.2 |
| A28G U33A A40U C87U G92A U127A G152U | -3.85 |
| A29U C38U A64U G88A A97U C116U | ≤ -4.2 |
| A26U C54G | -3.33 |
| A26U G34U G88C C105U U130A | ≤ -4.2 |
| C27G G58U C76A G86A U90C A106U C125U G136C | ≤ -4.2 |
| A29G G94U C114U G128A | ≤ -4.2 |
| A28U G48C C85A A97U A122G G143A U146C | ≤ -4.2 |
| C27G U31C G62C C63G C85U A142U | ≤ -4.2 |
| C27A U56G A60U G86U A97G U111G C132A U135G | ≤ -4.2 |
| C27G C38A C85A C87G G126A A137G | ≤ -4.2 |
| C27U C36U C57U G58A C96A A121U G140A | ≤ -4.2 |
| A29C C43G U53A G62U A147C | ≤ -4.2 |
| A29C G94C A97G A98G U104G | ≤ -4.2 |
| C27G C85U A91U U109A C118A U127C | ≤ -4.2 |

| Variant | polymerase ribozyme fitness (log ratio) |
| --- | --- |
| A26U C27A A29U G34A U61A C76G | ≤ -4.2 |
| A29C C35A U53A C57U G92A C118U A122G G136A C149U | ≤ -4.2 |
| A29U C32G C75U U77G G80A | ≤ -4.2 |
| C27U A47U C96A C103A G117A | ≤ -4.2 |
| C27A C79U | ≤ -4.2 |
| C27G C38A G42A G62A G68A A122C G128A U146G | -4.01 |
| A28C U31A A91G U104C | ≤ -4.2 |
| A26U G92U | -2.66 |
| C27A C87A C93A G143C U144G | ≤ -4.2 |
| A29U A47C C54A G94A U102G A110G C132A | ≤ -4.2 |
| A28U G133U A137C | ≤ -4.2 |
| A29U A40C U56A G88A A121U G126A G136A | -3.9 |
| A28U A47G C96A G141A | ≤ -4.2 |
| A29G G86U U102G U134G G140U C149A | ≤ -4.2 |
| C27G U55A A60G C125U | ≤ -4.2 |
| A28C G42A A113U C116U | ≤ -4.2 |
| A26U C76A G86C G92C C95A U144G | ≤ -4.2 |
| A29U A41G G48C A138G | ≤ -4.2 |
| A26U A107G G141A | ≤ -4.2 |
| A26U C51A A60U G88U C95U C118U G141C | ≤ -4.2 |
| C27A U134G U139A | ≤ -4.2 |
| C27A U33G U55A C116G | -4.1 |
| C27G A28U U55G U61A C76A C96U C116G G133C | ≤ -4.2 |
| A28U G84A C125U G126A G152U | ≤ -4.2 |

| Variant | polymerase ribozyme fitness (log ratio) |
| --- | --- |
| A28U A49C G58C G59A G84U U146A C149U | ≤ -4.2 |
| A29U A40C G62U G70A G84A C96A U139C | ≤ -4.2 |
| A26U C87U G141U | -1.66 |
| A29G G34A U56A C75U | ≤ -4.2 |
| A28U A41G G42C G94C | ≤ -4.2 |
| A26U A60C G80C A91U A121C | ≤ -4.2 |
| A28U G84U G86A G94A A98G C131A | ≤ -4.2 |
| C27A C85A C149U | ≤ -4.2 |
| A28G A37C A41C C69A C85U G133C | ≤ -4.2 |
| C27A U82A A91G C131G U139C | ≤ -4.2 |
| A28U G58A G88C G133A A138G G143U | ≤ -4.2 |
| A28G G86U | -3.52 |
| A28U C32G G133C | ≤ -4.2 |
| A28U C69A C75U U139G | ≤ -4.2 |
| A28U C32A G50C C96A A106G U127G | ≤ -4.2 |
| C27U C36A A39C A41G G68A C93A A138G U139A | ≤ -4.2 |
| A29U G48A A49C C87G | ≤ -4.2 |
| C27A C36G A91U C99U | ≤ -4.2 |
| A29U C32U G34C C72U C95A G140C | ≤ -4.2 |
| A28U G80U | -4.11 |
| A29G A49G C51U G70A A107U | ≤ -4.2 |
| C27U C32U A40U A49C C54U C87U A89U A98U | ≤ -4.2 |
| C27U U56A | -1.67 |
| C27G A28U G81C G141A | ≤ -4.2 |

| Variant | polymerase ribozyme fitness (log ratio) |
| --- | --- |
| A26U G58C A60C G100A A115G | ≤ -4.2 |
| C27U G84A G88A | -4.04 |
| C27U C32G G50A C69A A97G U135G G140A | ≤ -4.2 |
| A28U A37C | -3.93 |
| A28G A49G C54U C85A U144G | ≤ -4.2 |
| A26U C54G U148A | ≤ -4.2 |
| A28U C93G | ≤ -4.2 |
| C27A A60G C75U C87U G100A C116U U148A | ≤ -4.2 |
| A28U U44G A60C C85A U144C U148A | ≤ -4.2 |
| A26U U146G | -1.92 |
| A28C C54A G100A | ≤ -4.2 |
| A28U U33G A89G A91G C95A A98C | ≤ -4.2 |
| A28U A41C C54A A60C C96A C105U A106U | ≤ -4.2 |
| A26U C36A U56G C108A A137C | ≤ -4.2 |
| C27U U53A | -2.76 |
| A28C G94C | -4.04 |
| A28G U55A G58C A122G | ≤ -4.2 |
| A28C A66G U148A | ≤ -4.2 |
| A26U U53A C76A G124U U145C | ≤ -4.2 |
| C27A C43A A66U C93G G140U G141A U146G | ≤ -4.2 |
| A28C C38A G48C A73G U144C | ≤ -4.2 |
| A28G U53A U144G | ≤ -4.2 |
| C27A U44A U61A C95U G117C A121U C129G | ≤ -4.2 |
